{"source": "patent US9555076B2", "about": "“Neuregulin based methods and compositions for treating cardiovascular diseases” (Zensun (Shanghai) Science & Technology, Co., Ltd., priority 2002, dated 2017)", "molecules": {"B1": {"name": "rhNRG-1 β: Recombinant human neuregulin fragment of 61 amino acid (SEQ ID NO:4), 3 disulfide bonds, expressed in E. coli (protein, listed as Homo sapiens)", "chain": "SHLVKCAEKEKTFCVNGGECFMVKDLSNPSRYLCKCPNEFTGDRCQNYVMASFYKAEELYQ", "modifications": "disulfide (positions not given here)"}}, "key": {"[1]": {"tested_on": "heart failure in rat caused by ligation of coronary artery", "experiment": "Plasma renin-angiotensin-aldosterone radioimmunoassay", "assay_type": "in vivo, SD rat", "method": "Carotid artery phlebotomy was carried out and plasma extracted according to the mandate of the reagent kit, frozen and stored at −20° C. Renin activity (PRA), angiotensin I (AI), angiotensin II (AII) and aldosterone (ALD) content were determined with immunoassay."}, "[2]": {"tested_on": "toxic myocarditis caused by Adriamycin in rat", "experiment": "Survival rate, Adriamycin caused toxic myocarditis rat model", "assay_type": "in vivo, SD rat", "method": "rhNRG-1β was injected into the tail vein within 24 hours after the first injection of Adriamycin, the injection of rhNRG-1 β was carried out once daily for 10 days. Dosage was adjusted according to the body weight, volume of the drug administered was 0.2 ml/100 g.\nBased on the <<Guidance Principle of New Drug Preclinical Experiment>>, 3.3 mg/kg of Adriamycin was injected into the tail vein, once per week for consecutive 4 injections, establishing Adriamycin caused toxic myocarditis rat model.\nrhNRG-1 β was injected into the tail vein within 24 hours after the first injection of Adriamycin. During the experiment, animal survival was dynamically monitored, heart function indexes (maximal rate of pressure increase within left ventricle, […], maximal rate of pressure decrease within left ventricle, −dp/dt, systolic end pressure of left ventricle LVPmax, diastolic end pressure of left ventricle LVPmin) were monitored at the 5th week. Section was made from the heart tissue and pathological changes examined.\nSituation of survival was recorded weekly and the survival rate of the various experimental groups was calculated. Survival rate (%)=survival animal number/number of experimental animals×100."}, "[3]": {"tested_on": "toxic myocarditis caused by Adriamycin in rat", "experiment": "Myocardial pathologic scoring, Adriamycin rat model", "assay_type": "in vivo, SD rat", "details": "Adriamycin model", "method": "Heart was extirpated after thoracotomy (auricle should be reserved), the heart weight was measured after dried with absorbent paper, ratio of heart weight/body weight calculated; outer diameter of the heart was measured at ½ site of the vertically standing heart; medium part of the left ventricle was crosswise cut open, maximal thickness of free wall of the left ventricle measured; the heart was fixed with 10% formaldehyde, paraffin embedded and HE stained, observation of the myocardial structure carried out under optic microscope, give out pathologic score.\nScoring could be performed between grade 1 and grade 2 or between grade 2 and grade 3, e.g. grade 1.5, grade 2.5 etc. 6.3.3.3 Determination of Hemodynamics Index"}, "Rhesus [4]": {"tested_on": "Rhesus", "experiment": "Rhesus long-term toxicity study, 3 weeks iv plus 3 weeks convalescence", "details": "7.5, 15, 75 μg/kg/d iv 3 weeks"}, "[5]": {"tested_on": "toxic myocarditis caused by Adriamycin in rat", "experiment": "Serum troponin T (cTnT) level, Adriamycin rat model", "assay_type": "in vivo, SD rat"}, "Rhesus [6]": {"tested_on": "Rhesus", "experiment": "Serum antibody detection (ELISA) in long-term toxicity study", "assay_type": "in vivo", "details": "7.5, 15, 75 μg/kg/d iv, 1, 2, 3-week and end of convalescent period", "method": "Sealing: Wash the plate 5 times, prepare 5% evaporated skimmed milk with cleaning solution.\nDilute the scheduled for testing serum; dilute the sample with sample dilution solution, dilute gradient is 1:100.\nAdd sample: Wash the sealed enzyme labeled plate for 3 times, add scheduled for testing serum, 100 μl/hole, 37° C. for 1 hour.\nAdd enzyme labeled antibody: Wash the plate 5 times, add 1:1000 diluted HRP labeled rat anti-monkey immunoglobulin, […], 37° C. for 1 hour.\nSubstrate: Wash the plate 5 times, add newly prepared substrate operating fluid, 100 μl/hole, 37° C. for 10 minutes.\nEnding: add 2N H2SO4, 50 μl/hole to end the reaction.\nOdd value detection: Positive result was defined as OD value of testing sample was 2.1 time greater than that of the negative control (serum was 1:100 diluted)."}, "[7]": {"details": "dose not given (n = 6), iv qd × 10"}}, "note": "Where “and” joins values, the source holds several entries; their conditions need not be identical. Equal values may be shown once.", "data": [{"molecule": "B1", "values": [{"measurement": "AI", "setting": "[1]; 5 μg/kg iv qd × 10", "result": 10.036, "unit": "ng/mL"}, {"measurement": "AII", "setting": "[1]; 5 μg/kg iv qd × 10", "result": 807.304, "unit": "pg/mL"}, {"measurement": "ALD", "setting": "[1]; 5 μg/kg iv qd × 10", "result": 1.472, "unit": "ng/mL"}, {"measurement": "PRA", "setting": "[1]; 5 μg/kg iv qd × 10", "result": 4.032, "unit": "ng/ml · h"}, {"measurement": "AI", "setting": "[1]; 10 μg/kg iv qd × 10", "result": "7.65 ± 1.40 ng/mL and 7.654 ng/mL"}, {"measurement": "AII", "setting": "[1]; 10 μg/kg iv qd × 10", "result": "468.58 ± 165.10 pg/mL and 468.583 pg/mL"}, {"measurement": "ALD", "setting": "[1]; 10 μg/kg iv qd × 10", "result": "1.26 ± 0.38 ng/mL and 1.264 ng/mL"}, {"measurement": "PRA", "setting": "[1]; 10 μg/kg iv qd × 10", "result": "1.075±1.50 ng/ml · h and 1.075 ng/ml · h"}, {"measurement": "AI", "setting": "[1]; 20 μg/kg iv qd × 10", "result": "7.40 ± 12.15 ng/mL and 7.400 ng/mL"}, {"measurement": "AII", "setting": "[1]; 20 μg/kg iv qd × 10", "result": "641.47 ± 283.86 pg/mL and 641.47 pg/mL"}, {"measurement": "ALD", "setting": "[1]; 20 μg/kg iv qd × 10", "result": "1.02 ± 0.27 ng/mL and 1.018 ng/mL"}, {"measurement": "PRA", "setting": "[1]; 20 μg/kg iv qd × 10", "result": "1.337±1.09 ng/ml · h and 1.337 ng/ml · h"}, {"measurement": "AI", "setting": "[1]; [7]", "result": 10.655, "unit": "ng/mL"}, {"measurement": "AII", "setting": "[1]; [7]", "result": 1366.38, "unit": "pg/mL"}, {"measurement": "ALD", "setting": "[1]; [7]", "result": 1.738, "unit": "ng/mL"}, {"measurement": "PRA", "setting": "[1]; [7]", "result": 3.506, "unit": "ng/ml · h"}, {"measurement": "survival rate", "setting": "[2]; Adriamycin 3.3 mg/kg weekly × 4, 10 μg/kg iv qd 10 days", "result": 60, "unit": "%"}, {"measurement": "survival rate", "setting": "[2]; Adriamycin 3.3 mg/kg weekly × 4, 20 μg/kg iv qd 10 days", "result": 90, "unit": "%"}, {"measurement": "survival rate", "setting": "[2]; Adriamycin 3.3 mg/kg weekly × 4, 40 μg/kg iv qd 10 days", "result": 85, "unit": "%"}, {"measurement": "Pathologic scoring", "setting": "[3]; 10 μg/kg iv qd × 10 d, (I)", "result": "1.83 ± 0.41"}, {"measurement": "Pathologic scoring", "setting": "[3]; 10 μg/kg iv qd × 10 d, (II)", "result": "2.167 ± 0.516"}, {"measurement": "Pathologic scoring", "setting": "[3]; 20 μg/kg iv qd × 10 d, (I)", "result": "1.17 ± 0.93"}, {"measurement": "Pathologic scoring", "setting": "[3]; 20 μg/kg iv qd × 10 d, (II)", "result": "1.667 ± 0.931"}, {"measurement": "myocardial pathologic score of the section shown in FIG. 20", "setting": "[3]; 20 μg/kg testing drug group", "result": 1}, {"measurement": "Pathologic scoring", "setting": "[3]; 40 μg/kg iv qd × 10, (II)", "result": "0.583 ± 0.204"}, {"measurement": "Pathologic scoring", "setting": "[3]; 40 μg/kg iv qd × 10 d, (I)", "result": "0.33 ± 0.41"}, {"measurement": "myocardial pathologic score of the section shown in FIG. 20", "setting": "[3]; 40 μg/kg testing drug group", "result": 1}, {"measurement": "myocardial pathologic score of the section shown in FIG. 20", "setting": "[3]; 130 μg/kg testing drug group (so in the source)", "result": 1.5}, {"measurement": "animal death", "setting": "Rhesus [4]", "result": "No animal death associated with the testing drug"}, {"measurement": "cTnI", "setting": "[5]; 10 μg/kg iv qd × 10 d, (II)", "result": "8.342 ± 13.537", "unit": "ng/mL"}, {"measurement": "cTnI", "setting": "[5]; 20 μg/kg iv qd × 10 d, (II)", "result": "1.677 ± 0.589", "unit": "ng/mL"}, {"measurement": "cTnI", "setting": "[5]; 40 μg/kg iv qd × 10, (II)", "result": "0.874 ± 0.108", "unit": "ng/mL"}, {"measurement": "antibody testing", "setting": "Rhesus [6]", "result": "negative results"}]}]}
